Patent US10925928B2, “Method for treating chemotherapy-induced male infertility” (THE BOARD OF REGENTS OF THE UNIVERSITY OF TEXAS SYSTEM, priority 2013, dated 2021)
“Also recorded” adds a separate entry of the source.

Key:
C57BL/6 mice [1] = experiment: Acute mouse study: immunohistochemistry of undifferentiated spermatogonia (PLZF) and apoptosis 5 days after busulfan +/- G-CSF; assay type: in vivo; conditions: five days after busulfan treatment
Method: (§1) FIGS. 3A-3D. This study evaluated the chronic and acute effects of G-CSF treatment on susceptibility to cytotoxic damage by busulfan alkylating chemotherapy. (A) Five-week old C57BL/6 mice were treated with a sterilizing dose of busulfan (44 mg/kg) on day 0. Some busulfan-treated mice also received injections of recombinant human G-CSF (50 μg/kg/day) on days −2 through 4 (seven days total, see group 3 in B). (B) 3 animals were used for each of three treatment groups as shown. Animals in group 1 served as an “untreated” control group (received 0.1% BSA/DPBS and DMSO vehicles only), while those in group 2, which received only busulfan (plus 0.1% BSA/DPBS vehicle), served as positive controls for busulfan cytotoxicity. Animals in the experimental group 3 received both busulfan and daily G-CSF injections. (C) 8-10 weeks after treatment, some of the mice were euthanized and testes removed for histological evaluation of spermatogenesis. (D) In an “acute” study, testes were removed on day 5 of the experiment (one day after the last G-CSF treatment, dark triangle). These testis tissues were used for immunohistochemical analysis of undifferentiated spermatogonia (PLZF) and apoptosis (activated Caspase 3 and TUNEL, see FIGS. 10-12).
FIG. 10. […] The numbers of PLZF+spermatogonia in stained testis sections from mice treated as in FIG. 3 and analyzed as in FIG. 3D are shown. […] Statistical significance was determined by student's T-test.
FIG. 11. […] Despite increased numbers of PLZF+spermatogonia in busulfan-treated animals that also received G-CSF (FIG. 10), the proportions of PLZF+spermatogonia that were positive for activated Caspase 3 (top) were not different between animals treated with G-CSF compared to busulfan alone (p=0.38).
FIG. 12. […] Despite increased numbers of PLZF+spermatogonia in busulfan-treated animals that also received G-CSF (FIG. 10), the proportions of PLZF+spermatogonia that were positive for TUNEL were not different between animals treated with G-CSF compared to busulfan alone (p=0.28).
Shown in FIG. 10 are the numbers of PLZF+spermatogonia in stained testis sections from mice treated as in FIG. 3. […] Statistical significance was determined by student's T-test.
Despite increased numbers of PLZF+spermatogonia in busulfan-treated animals that also received G-CSF, the proportions of PLZF+spermatogonia that were positive for activated Caspase 3 (FIG. 11) or TUNEL (FIG. 12) were not different between animals treated with G-CSF compared to busulfan alone (p=0.38 and p=0.28, respectively).

rhesus macaques [2] = conditions: 8-12 mg/kg busulfan without G-CSF; two animals; total sperm per ejaculate; cited from earlier work
C57BL/6 mice [3] = experiment: Mouse testis weight and histological evaluation of spermatogenesis two months after busulfan +/- G-CSF; assay type: in vivo
Method: as §1
FIG. 4. Mouse testis weights 2 months after busulfan treatment +/−G-CSF. Two months after treatment, testes were removed from the treated mice and weighed. […] But, testis weights from animals treated with busulfan+G-CSF were not different from those treated with busulfan+vehicle. Statistical significance was determined by a student's T-test.
FIGS. 5A-5F. […] Tiled brightfield images of H&E-stained sections of mouse testes from (A) group 1 (DMSO+vehicle), (B) group 2 (busulfan+vehicle), and (C) group 3 (busulfan+G-CSF). Dashed box inset indicates the area shown in D-F. Scale bars=500 μm. Enlarged images of the dashed boxes in A-C are shown in (D-F), respectively. Scale bars=50 μm. Filled arrowheads=seminiferous tubules with spermatogenesis. Open arrowheads=no spermatogenesis.
FIGS. 6A-6B. Quantitatively more mouse spermatogenesis was observed after busulfan treatment when mice received G-CSF treatment. Seminiferous tubule cross-sections from mice treated as shown in FIG. 5 were systematically counted and categorized as containing complete spermatogenesis (complete), up to round spermatid stage (round spermatids), up to primary spermatocytes (1° spermatocytes), or containing no spermatogenesis (empty or Sertoli cell-only). (A) The percentage of all seminiferous tubule cross-sections counted from all animals in each group which fall in the four categories is shown. […] (B) The same data presented in A are combined by group to show the percentage of seminiferous tubules containing any spermatogenesis or no spermatogenesis (empty bar segment). […] Statistically significant results (p<0.05) were determined by Tukey-Kramer ANOVA.
The results of meta-analysis of the rhesus macaque busulfan studies prompted additional studies in mice to (1) replicate the results observed in rhesus macaques and (2) determine whether G-CSF could act directly upon testicular germ cells to prevent male infertility after busulfan treatment. In the first experiment, 5 week-old C57BL/6 mice were treated with G-CSF for one week (50 μg/kg/day) and administered busulfan (44 mg/kg) on day 3 (see FIG. 3), mimicking the approach used to administer G-CSF in rhesus monkeys. Two months after completing G-CSF treatment, the mice euthanized and their testes removed. […] The testes were then analyzed histologically (FIG. 5) to determine if G-CSF treatment affected the degree of spermatogenesis after busulfan treatment. Unlike control testes, in which most tubules contained complete spermatogenesis (FIGS. 5A and D), many tubules were devoid of germ cells (empty or Sertoli cell-only) in animals treated with busulfan (FIGS. 5B-C and E-F).

rhesus macaques [4] = experiment: Meta-analysis of ejaculated sperm counts in rhesus macaques after busulfan chemotherapy with or without G-CSF; assay type: in vivo, rhesus macaque
Source text: FIG. 1. Timeline for rhesus macaque granulocyte colony stimulating factor (G-CSF) and chemotherapy administration. FIG. 1 illustrates the timing of experimental administration of G-CSF and busulfan alkyating chemotherapy in the context of a study testing spermatogonial stem cell transplantation. Male rhesus macaques were used as recipients for spermatogonial stem cell transplantation after busulfan treatment. In order to restore the hematopoietic system after busulfan chemotherapy, autologous transplants of hematopoietic stem cells harvested from the peripheral blood (PBSCs) following G-CSF mobilization were used. Animals received daily subcutaneous injections with the cytokine G-CSF (and in some cases, also SCF) for six days to mobilize hematopoietic stem cells from the bone marrow into the general circulation. […] Animals were monitored closely for hematopoietic deficits with weekly (or more frequent) complete blood count (CBC). […] Weekly ejaculated sperm counts measured the effect of busulfan on spermatogenesis and the progression of spermatogenic recovery after transplant. […]
Animals received daily subcutaneous injections with the cytokine G-CSF for 6 days to mobilize hematopoietic stem cells from the bone marrow into the general circulation. […] Animals were monitored closely for hematopoietic deficits with weekly (or more frequent) complete blood count (CBC). […]

irradiated mice = conditions: G-CSF 100 μg/kg/day for 3 days prior to 5 Gy testicular gamma irradiation; measured 3 weeks later; cited from earlier work
[5] = 2 day pre-treatment and 5 day post-treatment with G-CSF 50 μg/kg, p<0.05 Tukey-Kramer ANOVA

## CS(=O)(=O)OCCCCOS(C)(=O)=O [busulfan, reference compound]
C57BL/6 mice [1]; student's T-test
  numbers of PLZF+ spermatogonia per tubule, busulfan-treated groups compared with vehicle-treated animals: significantly lower
Rhesus macaques [2]
  loss of spermatogenesis (azoospermia), mean sperm counts: loss of spermatogenesis (azoospermia) for at least one year
C57BL/6 mice [3]; busulfan 44 mg/kg, two months after treatment, histology of seminiferous tubule cross-sections
  spermatogenesis, busulfan alone compared to control animals: significantly less spermatogenesis
C57BL/6 mice [3]; busulfan 44 mg/kg, two months after treatment, student's T-test
  testis weights, busulfan-treated animals compared with controls: significantly smaller; also recorded: significantly reduced

## SCF: cytokine given in some cases in addition to G-CSF for mobilization of hematopoietic stem cells
Rhesus macaques [4]; one monkey of the G-CSF group, data not shown
  spermatogenic recovery, animal given SCF in addition to G-CSF compared with the other two G-CSF animals: no apparent difference in spermatogenic recovery

B1: granulocyte colony-stimulating factor (protein, UniProt P09919 31-207, looked up)
Granulocyte …: TPLGPASSLPQSFLLKCLEQVRKIQGDGAALQEKLVSECATYKLCHPEELVLLGHSLGIPWAPLSSCPSQALQLAGCLSQLHSGLFLYQGLLQALEGISPELGPTLDTLQLDVADFATTIWQQMEELGMAPALQPTQGAMPAFASAFQRRAGGVLVASHLQSFLEVSYRVLRHLAQP
notes: protein produced from the gene encoding colony-stimulating factor 3; known by trade names neupogen, neulasta, filgrastim
C57BL/6 mice [1]; early apoptosis, p=0.38
  proportion of PLZF+ spermatogonia positive for activated Caspase 3, G-CSF compared to busulfan alone: not different
C57BL/6 mice [1]; p=0.035, student's T-test
  number of PLZF+ spermatogonia per tubule cross-section, G-CSF + busulfan compared with busulfan alone: significantly higher
C57BL/6 mice [1]; late apoptosis, p=0.28
  proportion of PLZF+ spermatogonia positive for TUNEL, G-CSF compared to busulfan alone: not different
Rhesus macaques [4]; 8-11 mg/kg busulfan plus G-CSF mobilization and PBSC transplants, three animals, endogenous spermatogenesis
  time at which spermatogenesis recovered after busulfan treatment: ≥ 20 weeks
Irradiated mice
  numbers of surviving differentiated spermatogonia following sub-sterilizing irradiation: modest improvement
C57BL/6 mice [3]; [5]
  empty seminiferous tubules, G-CSF + busulfan compared with busulfan alone: significantly fewer; also recorded: significantly less
  seminiferous tubules containing complete spermatogenesis, G-CSF + busulfan compared with busulfan alone: significantly more
  tubules with any degree of spermatogenesis, G-CSF + busulfan compared with busulfan alone: significantly more
C57BL/6 mice [3]; G-CSF 50 μg/kg/day for seven days, busulfan 44 mg/kg, two months after treatment
  testis weights, busulfan + G-CSF compared with busulfan alone: not different; also recorded: did not differ significantly
C57BL/6 mice [3]; histological analysis, G-CSF 50 μg/kg/day, busulfan 44 mg/kg, two months
  recovery of spermatogenesis after busulfan treatment, G-CSF compared with controls: significantly better recovery of spermatogenesis
